# Test results reported in PMC6366900, “Pat1 promotes processing body assembly by enhancing the phase separation of the DEAD-box ATPase Dhh1 and RNA” (eLife, 2019).
# T1: Dhh1 (full-length) (S. cerevisiae, UniProt P39517 1-506)
# T1 construct: Dhh1, DEAD-box ATPase, S. cerevisiae, full-length; also called DEAD-box ATPase Dhh1; source: purified as described previously (Mugler et al., 2016)
# T1 sequence (looked up): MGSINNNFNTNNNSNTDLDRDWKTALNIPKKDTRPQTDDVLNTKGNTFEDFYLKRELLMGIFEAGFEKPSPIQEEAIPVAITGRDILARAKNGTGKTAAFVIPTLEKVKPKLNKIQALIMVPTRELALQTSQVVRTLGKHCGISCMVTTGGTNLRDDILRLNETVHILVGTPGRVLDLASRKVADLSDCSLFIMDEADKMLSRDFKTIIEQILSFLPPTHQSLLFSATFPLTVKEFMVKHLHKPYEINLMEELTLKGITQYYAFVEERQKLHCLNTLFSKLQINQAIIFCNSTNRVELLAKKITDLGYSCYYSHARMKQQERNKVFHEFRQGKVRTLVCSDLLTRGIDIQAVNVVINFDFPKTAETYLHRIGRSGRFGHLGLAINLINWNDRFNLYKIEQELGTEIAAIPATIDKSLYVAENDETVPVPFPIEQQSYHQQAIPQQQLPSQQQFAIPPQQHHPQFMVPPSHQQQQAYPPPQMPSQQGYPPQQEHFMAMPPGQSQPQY
# Molecular target: T1, Dhh1 (full-length)
# Experiment: pull-down; GST-Pat1-NC and mutants bound to GST-slurry as bait, Dhh1 as prey; 1 hr at 4°C; wash buffer 300 mM NaCl, 10 mM Tris pH 7.5, 0.05 % NP40, washed five times; 12% acrylamide gel, Coomassie
# Details: both partners purified
row,Binder,binding result
1,"GST-Pat1-NC (domain or fragment, S. cerevisiae, Pat1, S. cerevisiae, N-terminal fragment (Pat1-N), amino acids 5-79; linker, printed as (GGS)4; Cloned into a pETM-CN vector; The His and GST tags were cleaved unless required for pull-down assays; In the droplet assay (functional rows) the protein was Pat1-NC-GFP, not the GST form; also called recombinant Pat1-NC protein; source: E. coli BL21 DE3, purified (Ni2+ sepharose, Superdex 200); not …) GLENSGNARDGPLDFEESYKGYGEHELEENDYLNDETFGDNVQVGTDFDFGNPHSSGSSGNAIGGNGVGATARSYGGSGGSGGSGGSSSYAFNNGNGATNLNKSGGKKFILELIETVYEEILDLEANLRNGQQTDSTAMWEALHIDDSSYDVNPFISMLSFDKGIKIMPRIFNFLDKQQKLKILQKIFNELSHLQIIILSSYKTTPKPTLTQLKKVDLFQMIILKIIVSFLSNNSNFIEIMGLLLQLIRNNNVSFLTTSKIGLNLITILISRAALIKQDSSRSNILSSPEISTWNEIYDKLFTSLESKIQLIFPPREYNDHIMRLQNDKFMDEAYIWQFLASLALSGKLNHQRIIIDEVRDEIFATINEAETLQKKEKELSVLPQRSQELDTELKSIIYNKEKLYQDLNLFLNVMGLVY",binds
2,"GST-Pat1-NC^EE (domain or fragment, S. cerevisiae, Pat1, S. cerevisiae, N-terminal fragment (Pat1-N), amino acids 5-79; linker, printed as (GGS)4; Mutant of m1; also called Pat1^EE; phospho-mimetic mutant; source: E. coli BL21 DE3, purified (Ni2+ sepharose, Superdex 200); not shown: GST, N-terminal, kept) GLENSGNARDGPLDFEESYKGYGEHELEENDYLNDETFGDNVQVGTDFDFGNPHSSGSSGNAIGGNGVGATARSYGGSGGSGGSGGSEEYAFNNGNGATNLNKSGGKKFILELIETVYEEILDLEANLRNGQQTDSTAMWEALHIDDSSYDVNPFISMLSFDKGIKIMPRIFNFLDKQQKLKILQKIFNELSHLQIIILSSYKTTPKPTLTQLKKVDLFQMIILKIIVSFLSNNSNFIEIMGLLLQLIRNNNVSFLTTSKIGLNLITILISRAALIKQDSSRSNILSSPEISTWNEIYDKLFTSLESKIQLIFPPREYNDHIMRLQNDKFMDEAYIWQFLASLALSGKLNHQRIIIDEVRDEIFATINEAETLQKKEKELSVLPQRSQELDTELKSIIYNKEKLYQDLNLFLNVMGLVY",binds
